B1: GLS3000 S27eR one-arm antibody (H chain CE115HA000) (antibody, human IgG1, kappa, L234A L235A, N297A, name in Kabat numbering)
heavy: QVQLVESGGGVVQPGRSLRLSCAASGFTFSNAWMHWVRQAPGKGLEWVAQIKAKSNNYATYYAESVKGRFTISRDDSKNSLYLQMNSLKTEDTAVYYCRYVHYGAYYGVDAWGQGTTVTVSSASTKGPSVFPLAPSSKSTSGGTAALGCLVKDYFPEPVTVSWNSGALTSGVHTFPAVLQSSGLYSLSSVVTVPSSSLGTQTYICNVNHKPSNTKVDKKVEPKSCDKTHTCPPCPAPEAAGGPSVFLFPPKPKDTLMISRTPEVTCVVVDVSHEDPEVKFNWYVDGVEVHNAKTKPREEQYASTYRVVSVLTVLHQDWLNGKEYKCKVSNKALPAPIEKTISKAKGQPREPQVYTLPPSRCELTKNQVSLSCAVKGFYPSDIAVEWESNGQPENNYKTTPPVLDSDGSFFLVSKLTVDKSRWQQGNVFSCSVMHEALHNHYTQKSLSLSPDYKDDDDK
chain: EPKSSDKTHTCPPCPAPELLGGPSVFLFPPKPKDTLMISRTPEVTCVVVDVSHEDPEVKFNWYVDGVEVHNAKTKPREEQYNSTYRVVSVLTVLHQDWLNGKEYKCKVSNKALPAPIEKTISKAKGQPREPQVCTLPPSRDELTKNQVSLWCLVKGFYPSDIAVEWESNGQPENNYKTTPPVLDSDGSFFLYSKLTVDKSRWQQGNVFSCSVMHEALHNRYTQKSLSLSP
light: DIVMTQSPLSLPVTPGEPASISCRSSQSLVHRNRNTYLHWYQQKPGQAPRLLIYKVSNRFSGVPDRFSGSGSGTDFTLKISRVEAEDVGVYYCGQGTQVPYTFGQGTKLEIKRTVAAPSVFIFPPSDEQLKSGTASVVCLLNNFYPREAKVQWKVDNALQSGNSQESVTEQDSKDSTYSLSSTLTLSKADYEKHKVYACEVTHQGLSSPVTKSFNRGEC
notes: one-arm antibody
B2: GLS3000 S27eT one-arm antibody (H chain CE115HA000) (antibody, human IgG1, kappa, L234A L235A, N297A, name in Kabat numbering)
heavy: QVQLVESGGGVVQPGRSLRLSCAASGFTFSNAWMHWVRQAPGKGLEWVAQIKAKSNNYATYYAESVKGRFTISRDDSKNSLYLQMNSLKTEDTAVYYCRYVHYGAYYGVDAWGQGTTVTVSSASTKGPSVFPLAPSSKSTSGGTAALGCLVKDYFPEPVTVSWNSGALTSGVHTFPAVLQSSGLYSLSSVVTVPSSSLGTQTYICNVNHKPSNTKVDKKVEPKSCDKTHTCPPCPAPEAAGGPSVFLFPPKPKDTLMISRTPEVTCVVVDVSHEDPEVKFNWYVDGVEVHNAKTKPREEQYASTYRVVSVLTVLHQDWLNGKEYKCKVSNKALPAPIEKTISKAKGQPREPQVYTLPPSRCELTKNQVSLSCAVKGFYPSDIAVEWESNGQPENNYKTTPPVLDSDGSFFLVSKLTVDKSRWQQGNVFSCSVMHEALHNHYTQKSLSLSPDYKDDDDK
chain: EPKSSDKTHTCPPCPAPELLGGPSVFLFPPKPKDTLMISRTPEVTCVVVDVSHEDPEVKFNWYVDGVEVHNAKTKPREEQYNSTYRVVSVLTVLHQDWLNGKEYKCKVSNKALPAPIEKTISKAKGQPREPQVCTLPPSRDELTKNQVSLWCLVKGFYPSDIAVEWESNGQPENNYKTTPPVLDSDGSFFLYSKLTVDKSRWQQGNVFSCSVMHEALHNRYTQKSLSLSP
light: DIVMTQSPLSLPVTPGEPASISCRSSQSLVHTNRNTYLHWYQQKPGQAPRLLIYKVSNRFSGVPDRFSGSGSGTDFTLKISRVEAEDVGVYYCGQGTQVPYTFGQGTKLEIKRTVAAPSVFIFPPSDEQLKSGTASVVCLLNNFYPREAKVQWKVDNALQSGNSQESVTEQDSKDSTYSLSSTLTLSKADYEKHKVYACEVTHQGLSSPVTKSFNRGEC
notes: one-arm antibody
B3: GLS3000 S27eV one-arm antibody (H chain CE115HA000) (antibody, human IgG1, kappa, L234A L235A, N297A, name in Kabat numbering)
heavy: QVQLVESGGGVVQPGRSLRLSCAASGFTFSNAWMHWVRQAPGKGLEWVAQIKAKSNNYATYYAESVKGRFTISRDDSKNSLYLQMNSLKTEDTAVYYCRYVHYGAYYGVDAWGQGTTVTVSSASTKGPSVFPLAPSSKSTSGGTAALGCLVKDYFPEPVTVSWNSGALTSGVHTFPAVLQSSGLYSLSSVVTVPSSSLGTQTYICNVNHKPSNTKVDKKVEPKSCDKTHTCPPCPAPEAAGGPSVFLFPPKPKDTLMISRTPEVTCVVVDVSHEDPEVKFNWYVDGVEVHNAKTKPREEQYASTYRVVSVLTVLHQDWLNGKEYKCKVSNKALPAPIEKTISKAKGQPREPQVYTLPPSRCELTKNQVSLSCAVKGFYPSDIAVEWESNGQPENNYKTTPPVLDSDGSFFLVSKLTVDKSRWQQGNVFSCSVMHEALHNHYTQKSLSLSPDYKDDDDK
chain: EPKSSDKTHTCPPCPAPELLGGPSVFLFPPKPKDTLMISRTPEVTCVVVDVSHEDPEVKFNWYVDGVEVHNAKTKPREEQYNSTYRVVSVLTVLHQDWLNGKEYKCKVSNKALPAPIEKTISKAKGQPREPQVCTLPPSRDELTKNQVSLWCLVKGFYPSDIAVEWESNGQPENNYKTTPPVLDSDGSFFLYSKLTVDKSRWQQGNVFSCSVMHEALHNRYTQKSLSLSP
light: DIVMTQSPLSLPVTPGEPASISCRSSQSLVHVNRNTYLHWYQQKPGQAPRLLIYKVSNRFSGVPDRFSGSGSGTDFTLKISRVEAEDVGVYYCGQGTQVPYTFGQGTKLEIKRTVAAPSVFIFPPSDEQLKSGTASVVCLLNNFYPREAKVQWKVDNALQSGNSQESVTEQDSKDSTYSLSSTLTLSKADYEKHKVYACEVTHQGLSSPVTKSFNRGEC
notes: one-arm antibody
B4: GLS3000 S27eW one-arm antibody (H chain CE115HA000) (antibody, human IgG1, kappa, L234A L235A, N297A, name in Kabat numbering)
heavy: QVQLVESGGGVVQPGRSLRLSCAASGFTFSNAWMHWVRQAPGKGLEWVAQIKAKSNNYATYYAESVKGRFTISRDDSKNSLYLQMNSLKTEDTAVYYCRYVHYGAYYGVDAWGQGTTVTVSSASTKGPSVFPLAPSSKSTSGGTAALGCLVKDYFPEPVTVSWNSGALTSGVHTFPAVLQSSGLYSLSSVVTVPSSSLGTQTYICNVNHKPSNTKVDKKVEPKSCDKTHTCPPCPAPEAAGGPSVFLFPPKPKDTLMISRTPEVTCVVVDVSHEDPEVKFNWYVDGVEVHNAKTKPREEQYASTYRVVSVLTVLHQDWLNGKEYKCKVSNKALPAPIEKTISKAKGQPREPQVYTLPPSRCELTKNQVSLSCAVKGFYPSDIAVEWESNGQPENNYKTTPPVLDSDGSFFLVSKLTVDKSRWQQGNVFSCSVMHEALHNHYTQKSLSLSPDYKDDDDK
chain: EPKSSDKTHTCPPCPAPELLGGPSVFLFPPKPKDTLMISRTPEVTCVVVDVSHEDPEVKFNWYVDGVEVHNAKTKPREEQYNSTYRVVSVLTVLHQDWLNGKEYKCKVSNKALPAPIEKTISKAKGQPREPQVCTLPPSRDELTKNQVSLWCLVKGFYPSDIAVEWESNGQPENNYKTTPPVLDSDGSFFLYSKLTVDKSRWQQGNVFSCSVMHEALHNRYTQKSLSLSP
light: DIVMTQSPLSLPVTPGEPASISCRSSQSLVHWNRNTYLHWYQQKPGQAPRLLIYKVSNRFSGVPDRFSGSGSGTDFTLKISRVEAEDVGVYYCGQGTQVPYTFGQGTKLEIKRTVAAPSVFIFPPSDEQLKSGTASVVCLLNNFYPREAKVQWKVDNALQSGNSQESVTEQDSKDSTYSLSSTLTLSKADYEKHKVYACEVTHQGLSSPVTKSFNRGEC
notes: one-arm antibody

Target: T1, CD3 epsilon homodimer protein (UniProt P07766 23-126)
T1 construct: also called CD3 (CD3 epsilon)
Assay: SPR, CD3e homodimer on chip;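 also: surface plasmon resonance at 25 degrees C, antibodies flowed as analyte over CD3 epsilon homodimer amine-coupled to a CM4 chip, running buffer HBS-EP+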

T1 sequence (P07766 23-126): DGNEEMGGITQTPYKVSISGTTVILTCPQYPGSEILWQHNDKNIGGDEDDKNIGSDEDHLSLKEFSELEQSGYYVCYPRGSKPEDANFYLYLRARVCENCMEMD

**Q.** For B1, which “ratio of amounts bound (altered form / unaltered GLS3000 antibody)” value is on record?
**A.** 1.58

**Q.** How did the “ratio of amounts bound (altered form / unaltered GLS3000 antibody)” value turn out when B2 was run?
**A.** 0.97

**Q.** Which “ratio of amounts bound (altered form / unaltered GLS3000 antibody)” value does the source give for B3 here?
**A.** 1.08

**Q.** How did the “ratio of amounts bound (altered form / unaltered GLS3000 antibody)” value turn out when B4 was run?
**A.** 1.55
